The record followed here is patent US20090215195A1.

In the assay the target is Human complement component C5 (human) (UniProt P01031). Nature of the assay: cell-based or functional assay.

For “Recombinant SET1 (SSL7), allele from Staphylococcus aureus clinical isolate GL1”, the SET1 concentration at maximum survival of E. coli in human serum is 2.1 nM and the surviving E. coli cells in human serum, maximum level was 14%.
